Assay results: the supplement of paper PMC7877785
± gives the uncertainty stated by the source.

Experiment: self-splicing fitness, log relative to wild type (ln ratio); higher = more splicing; Tetrahymena group I intron in knt gene, E. coli kanamycin selection, DiMSum; sequences stand for … in CUCUCU…GGAGGGAAAAGUUAUCAGGCAUGCACCUGGUAGCUAGUCUUUAAACCAAUAGAUUGCAUCGGUUUAAAAGGCAAGACCGUCAAAUUGCGGGAAAGGGGUCAACAGCCGUUCAGUACCAAGUCUCAGGGGAAACUUUGAGAUGGCCUUGCAAAGGGUAUGGUAAUAAGCUGACGGACAUGGUCCUAACCACGCAGCCAAGUCCUAAGUCAACAGAUCUUCUGUUGAUAUGGAUGCAGUUCACAGACUAAAUGUCGGUCGGGGAAGAUGUAUUCUUCUCAUAAGAUAUAGUCGGACCUCUCCUUAAUGGGAGCUAGCGGAUGAAGUGAUGCAACACUGGAGCCGCUGGGAACUAAUUUGUAUGCGAAAGUAUAUUGAUUAGUUUUGGAGUACUCGUGGUCG
In short: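 Colonies from six replicate transformations of E. coli BL21(DE3) were pooled and amplicon-sequenced on an Illumina HiSeq 2500. The library placed an intron with all eight P1ex-region nucleotides randomised inside the knt kanamycin-resistance gene on pET-22b(+), and cells grew overnight at 37°C or 30°C on LB agar with or without 25 μg/mL kanamycin (plus 100 μg/mL carbenicillin, 50 μM IPTG, 0.2% rhamnose). Fitness is the DiMSum error-weighted combination of wild-type-normalised replicate fold changes, kanamycin versus none.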

Sequence | self-splicing fitness (ln) (30 °C) | self-splicing fitness (ln) (37 °C)
GGAAAGCAAUAUUACGCCUU | -1.07 ± 0.29 | -1.29 ± 0.38
GGAAAGCAAUAUUACGCUAG | -2.03 ± 0.22 | -0.857 ± 0.29
GGAAAGCAAUAUUACGGCUU | -1.08 ± 0.091 | -0.393 ± 0.14
GGAAAGCAAUAUUACGGGAA | -2.5 ± 0.36 | -2.92 ± 0.26
GGAAAGCAAUAUUACGGGGG | -3.94 ± 0.26 | -1.45 ± 0.21
GGAAAGCAAUAUUACGGUCG | 0.127 ± 0.092 | -0.296 ± 0.12
GGAAAGCAAUAUUACGGUGC | -3.36 ± 0.27 | -1.62 ± 0.23
GGAAAGCAAUAUUACGUACG | -0.792 ± 0.097 | -0.786 ± 0.11
GGAAAGCAAUAUUACGUCCC | – | -2.61 ± 0.33
GGAAAGCAAUAUUACGUGAA | -1.96 ± 0.11 | -1.45 ± 0.16
GGAAAGCAAUAUUACGUGAG | -1.22 ± 0.047 | -0.225 ± 0.069
GGAAAGCAAUAUUACGUGGA | -3.49 ± 0.28 | -1.96 ± 0.23
GGACAGCAAUAUUACGAAAC | -0.691 ± 0.12 | -0.624 ± 0.2
GGACAGCAAUAUUACGACCA | -1.46 ± 0.13 | -0.645 ± 0.16
GGACAGCAAUAUUACGACCU | -0.544 ± 0.077 | -0.13 ± 0.087
GGACAGCAAUAUUACGAGGG | -3.16 ± 0.14 | -2.28 ± 0.15
GGACAGCAAUAUUACGCAAC | -1.68 ± 0.15 | -0.445 ± 0.18
GGACAGCAAUAUUACGCAUA | -0.761 ± 0.094 | 0.314 ± 0.12
GGACAGCAAUAUUACGCCAG | -2.17 ± 0.22 | -2.07 ± 0.35
GGACAGCAAUAUUACGCUAU | -1.42 ± 0.098 | -0.49 ± 0.11
GGACAGCAAUAUUACGCUGA | -2.21 ± 0.16 | -1.51 ± 0.15
GGACAGCAAUAUUACGGGAA | -2.7 ± 0.1 | -1.04 ± 0.083
GGACAGCAAUAUUACGGGAG | -2.73 ± 0.13 | -1.28 ± 0.15
GGACAGCAAUAUUACGGGCC | – | -1.52 ± 0.29
GGACAGCAAUAUUACGGUAA | -1.34 ± 0.082 | -0.697 ± 0.075

Sequence | self-splicing fitness (ln) (30 °C) | self-splicing fitness (ln) (37 °C)
GGACAGCAAUAUUACGGUCA | -0.242 ± 0.046 | 0.817 ± 0.07
GGACAGCAAUAUUACGUACA | -1.06 ± 0.096 | 0.0922 ± 0.12
GGACAGCAAUAUUACGUCAU | -1.17 ± 0.095 | -0.489 ± 0.1
GGACAGCAAUAUUACGUCUG | -1.1 ± 0.057 | -0.31 ± 0.072
GGACAGCAAUAUUACGUGGA | -1.08 ± 0.076 | -1.29 ± 0.075
GGACAGCAAUAUUACGUGGC | -3.02 ± 0.26 | -0.384 ± 0.16
GGACAGCAAUAUUACGUGUC | -3.52 ± 0.28 | -2.68 ± 0.23
GGACAGCAAUAUUACGUUAA | -0.204 ± 0.07 | 0.00356 ± 0.08
GGAGAGCAAUAUUACGAAAA | – | -0.772 ± 0.31
GGAGAGCAAUAUUACGAGAU | -2.5 ± 0.36 | -2.14 ± 0.34
GGAGAGCAAUAUUACGCACG | – | -0.798 ± 0.47
GGAGAGCAAUAUUACGCGAG | -2.31 ± 0.48 | –
GGAGAGCAAUAUUACGCGAU | -2.76 ± 0.28 | -1.64 ± 0.37
GGAGAGCAAUAUUACGCGUU | -2.46 ± 0.28 | -1.82 ± 0.32
GGAGAGCAAUAUUACGGACG | – | -1.27 ± 0.31
GGAGAGCAAUAUUACGGCAC | -1.39 ± 0.37 | –
GGAGAGCAAUAUUACGGGAG | -4.1 ± 0.21 | -2.37 ± 0.23
GGAGAGCAAUAUUACGGUGU | -3.55 ± 0.28 | -2.38 ± 0.18
GGAGAGCAAUAUUACGUACG | -2.56 ± 0.43 | –
GGAGAGCAAUAUUACGUCAG | -3.34 ± 0.22 | -1.75 ± 0.21
GGAGAGCAAUAUUACGUCUU | -4.08 ± 0.28 | -3.23 ± 0.38
GGAGAGCAAUAUUACGUUCG | -1.27 ± 0.19 | -0.35 ± 0.23
GGAGAGCAAUAUUACGUUGG | -4.09 ± 0.47 | -2.64 ± 0.36
GGAUAGCAAUAUUACGAAGA | -2.93 ± 0.34 | -1.82 ± 0.31
GGAUAGCAAUAUUACGAAGG | -2.12 ± 0.24 | -2.02 ± 0.26

Sequence | self-splicing fitness (ln) (30 °C) | self-splicing fitness (ln) (37 °C)
GGAUAGCAAUAUUACGACAC | -0.106 ± 0.11 | 0.407 ± 0.14
GGAUAGCAAUAUUACGAGCU | -0.723 ± 0.19 | -0.744 ± 0.14
GGAUAGCAAUAUUACGAUCA | 0.409 ± 0.12 | 0.227 ± 0.12
GGAUAGCAAUAUUACGCAGA | -2.53 ± 0.25 | -1.58 ± 0.21
GGAUAGCAAUAUUACGCCCG | -1.49 ± 0.24 | -0.949 ± 0.27
GGAUAGCAAUAUUACGCCUU | -0.526 ± 0.11 | 0.31 ± 0.1
GGAUAGCAAUAUUACGCGAA | -1.69 ± 0.29 | -1.41 ± 0.42
GGAUAGCAAUAUUACGCGAC | -3.69 ± 0.36 | -1.92 ± 0.38
GGAUAGCAAUAUUACGCUAU | – | -2.05 ± 0.31
GGAUAGCAAUAUUACGCUGU | -1.65 ± 0.25 | -2.68 ± 0.38
GGAUAGCAAUAUUACGGAUC | -0.869 ± 0.084 | -0.269 ± 0.11
GGAUAGCAAUAUUACGGCGC | 0.356 ± 0.34 | 0.121 ± 0.33
GGAUAGCAAUAUUACGGCUC | -0.0157 ± 0.31 | -1.59 ± 0.35
GGAUAGCAAUAUUACGGCUU | -0.686 ± 0.095 | -0.309 ± 0.11
GGAUAGCAAUAUUACGGGCG | -1.69 ± 0.13 | -0.955 ± 0.094
GGAUAGCAAUAUUACGGUCG | -0.0227 ± 0.077 | 0.199 ± 0.094
GGAUAGCAAUAUUACGGUUU | -1.22 ± 0.093 | -0.329 ± 0.11
GGAUAGCAAUAUUACGUACC | -2.37 ± 0.26 | -0.601 ± 0.25
GGAUAGCAAUAUUACGUAGG | -2.82 ± 0.19 | -1.52 ± 0.18
GGAUAGCAAUAUUACGUAGU | -3.21 ± 0.15 | -1.67 ± 0.15
GGAUAGCAAUAUUACGUCCG | -0.616 ± 0.17 | -0.972 ± 0.2
GGAUAGCAAUAUUACGUCCU | -3.13 ± 0.19 | -1.84 ± 0.24
GGAUAGCAAUAUUACGUCGC | -1.97 ± 0.17 | -1.42 ± 0.21
GGAUAGCAAUAUUACGUCGU | -0.886 ± 0.1 | -0.841 ± 0.12
GGAUAGCAAUAUUACGUCUC | -2.52 ± 0.25 | -2.16 ± 0.46

Sequence | self-splicing fitness (ln) (30 °C) | self-splicing fitness (ln) (37 °C)
GGAUAGCAAUAUUACGUCUG | -0.225 ± 0.061 | -0.0327 ± 0.088
GGAUAGCAAUAUUACGUGGC | -2.56 ± 0.25 | –
GGAUAGCAAUAUUACGUUAG | – | -2 ± 0.23
GGAUAGCAAUAUUACGUUUC | – | -1.84 ± 0.41
GGCAAGCAAUAUUACGAAUU | -0.859 ± 0.074 | 0.0425 ± 0.081
GGCAAGCAAUAUUACGACUG | -1.02 ± 0.12 | -0.532 ± 0.17
GGCAAGCAAUAUUACGAGAC | -0.681 ± 0.14 | -1.2 ± 0.23
GGCAAGCAAUAUUACGAGGA | -3.3 ± 0.42 | -1.77 ± 0.24
GGCAAGCAAUAUUACGAUGA | -1.07 ± 0.11 | -0.765 ± 0.13
GGCAAGCAAUAUUACGAUGU | -2.19 ± 0.12 | -1.44 ± 0.13
GGCAAGCAAUAUUACGCACG | -1 ± 0.13 | 0.171 ± 0.24
GGCAAGCAAUAUUACGCCAA | -1.93 ± 0.24 | -1.36 ± 0.21
GGCAAGCAAUAUUACGCGUC | -3.66 ± 0.34 | -2.74 ± 0.36
GGCAAGCAAUAUUACGCGUG | -1.95 ± 0.088 | -2.11 ± 0.095
GGCAAGCAAUAUUACGCUAU | -0.0842 ± 0.13 | -1.13 ± 0.11
GGCAAGCAAUAUUACGGAGA | -2.37 ± 0.24 | -2.22 ± 0.27
GGCAAGCAAUAUUACGGGCA | -0.0236 ± 0.092 | 0.138 ± 0.1
GGCAAGCAAUAUUACGGGUU | -0.709 ± 0.077 | -0.607 ± 0.08
GGCAAGCAAUAUUACGGUCC | -2.95 ± 0.15 | -2.1 ± 0.17
GGCAAGCAAUAUUACGGUGU | -1.2 ± 0.059 | -0.54 ± 0.09
GGCAAGCAAUAUUACGUAAU | 0.0253 ± 0.063 | 0.562 ± 0.074
GGCAAGCAAUAUUACGUAGG | -1.09 ± 0.061 | -0.937 ± 0.088
GGCAAGCAAUAUUACGUAUG | -2 ± 0.092 | -1.74 ± 0.1
GGCAAGCAAUAUUACGUCAU | -1.32 ± 0.072 | -0.111 ± 0.083
